Data on one substance can be found in ChEMBL document CHEMBL4396924, “Synthesis and biological evaluation of cis-restrained carbocyclic combretastatin A-4 analogs: Influence of the ring size and saturation on cytotoxic properties” (Bioorg Med Chem, 2019).

Common to all, as to conditions: Sus scrofa
Data set [1] has as its system COc1ccc(C2CC2c2cc(OC)c(OC)c(OC)c2)cc1N. Kind of data set: (§1) Inhibition of porcine brain tubulin polymerization assessed as Vmax measured every 60 secs by turbidometric assay.
Data set [2] concerns CC(=O)O[C@H]1C(=O)[C@@]2(C)[C@H]([C@H](OC(=O)c3ccccc3)[C@]3(O)C[C@H](OC(=O)[C@H](O)[C@@H](NC(=O)c4ccccc4)c4ccccc4)C(C)=C1C3(C)C)[C@]1(OC(C)=O)CO[C@@H]1C[C@@H]2O. Described as §1.
Data set [3] has as its system COc1ccc(C2=C(c3cc(OC)c(OC)c(OC)c3)CC2)cc1O. The description is as §1.
Data set [4] concerns COC(=O)Nc1nc2cc(C(=O)c3cccs3)ccc2[nH]1. Described as §1.
Data set [5] has as its system COc1ccc(C2=C(c3cc(OC)c(OC)c(OC)c3)CCCC2)cc1O. The data set is described as §1.
The test system of data set [6] is COc1ccc(C2CCCCC2c2cc(OC)c(OC)c(OC)c2)cc1O. The data set is described as §1.
Data set [7] deals with COc1ccc(C2CC2c2cc(OC)c(OC)c(OC)c2)cc1O. Described as §1.
Data set [8] relates to COc1ccc(C2=C(c3cc(OC)c(OC)c(OC)c3)CCC2)cc1O. The data set is described as §1.
Data set [9] concerns COc1ccc(C2CCC2c2cc(OC)c(OC)c(OC)c2)cc1O. Described as §1.
For data set [10], the system named is COc1ccc(/C=C\c2cc(OC)c(OC)c(OC)c2)cc1N. The data set is described as §1.
In data set [11] the test system is COc1ccc(/C=C\c2cc(OC)c(OC)c(OC)c2)cc1O. The data set is described as §1.
Data set [12] has as its system COc1ccc(C2CCCC2c2cc(OC)c(OC)c(OC)c2)cc1O. Described as §1.

Regarding “Tubulin (Sus scrofa) (from UniProt P02554+P02550)”, the Vmax (milli optical density/minute) in [1] was found to be 5.4; in [2], 84; in data set [3], 9; in data set [4], 13; in data set [5], 16.2; in data set [6] it was 11.6. Moreover, the Vmax (milli optical density/minute) in [7] was determined as 5.6; in data set [8] it was 10.6; in data set [9], 10.4; in [10], 5.2; in data set [11] it was 4.4; in data set [12] it was 12.
